Measurements taken from patent US20040229288A1 (AJINOMOTO, published 2004).

Experiments:
[1] = biological target: GPIb-mIgG2aFc chimeric protein (N-terminus side region of human glycoprotein Ib, amino acid numbers 1-319, fused to the Fc region of mouse immunoglobulin γ2a) (human (glycoprotein Ib part); mouse (immunoglobulin γ2a Fc part)); assay: Eu-labelled vWF (500 ng/ml) on captured chimeric protein, ristocetin 0 mg/ml, no inhibitor
[2] = biological target: GPIb-mIgG2aFc chimeric protein (N-terminus side region of human glycoprotein Ib, amino acid numbers 1-319, fused to the Fc region of mouse immunoglobulin γ2a) (human (glycoprotein Ib part); mouse (immunoglobulin γ2a Fc part)); assay: Eu-labelled vWF (500 ng/ml) on captured chimeric protein, ristocetin 1 mg/ml, no inhibitor
[3] = biological target: GPIb-mIgG2aFc chimeric protein (N-terminus side region of human glycoprotein Ib, amino acid numbers 1-319, fused to the Fc region of mouse immunoglobulin γ2a) (human (glycoprotein Ib part); mouse (immunoglobulin γ2a Fc part)); assay: Eu-labelled vWF (500 ng/ml) on captured chimeric protein, ristocetin 2 mg/ml, no inhibitor
[4] = biological target: GPIb-mIgG2aFc chimeric protein (N-terminus side region of human glycoprotein Ib, amino acid numbers 1-319, fused to the Fc region of mouse immunoglobulin γ2a) (human (glycoprotein Ib part); mouse (immunoglobulin γ2a Fc part)); assay: Eu-labelled vWF (500 ng/ml) on captured chimeric protein, ristocetin 0.5 mg/ml, no inhibitor
[5] = biological target: GPIb-mIgG2aFc chimeric protein (N-terminus side region of human glycoprotein Ib, amino acid numbers 1-319, fused to the Fc region of mouse immunoglobulin γ2a) (human (glycoprotein Ib part); mouse (immunoglobulin γ2a Fc part)); assay: Eu-labelled vWF (500 ng/ml) on captured chimeric protein, ristocetin 0.25 mg/ml, no inhibitor
[6] = biological target: GPIb-mIgG2aFc chimeric protein (N-terminus side region of human glycoprotein Ib, amino acid numbers 1-319, fused to the Fc region of mouse immunoglobulin γ2a) (human (glycoprotein Ib part); mouse (immunoglobulin γ2a Fc part)); assay: Eu-labelled vWF on captured chimeric protein, ristocetin 0 mg/ml, competitor recombinant AS1051 at 20 µg/ml
[7] = biological target: GPIb-mIgG2aFc chimeric protein (N-terminus side region of human glycoprotein Ib, amino acid numbers 1-319, fused to the Fc region of mouse immunoglobulin γ2a) (human (glycoprotein Ib part); mouse (immunoglobulin γ2a Fc part)); assay: Eu-labelled vWF on captured chimeric protein, ristocetin 1 mg/ml, competitor recombinant AS1051 at 20 µg/ml
[8] = biological target: GPIb-mIgG2aFc chimeric protein (N-terminus side region of human glycoprotein Ib, amino acid numbers 1-319, fused to the Fc region of mouse immunoglobulin γ2a) (human (glycoprotein Ib part); mouse (immunoglobulin γ2a Fc part)); assay: Eu-labelled vWF on captured chimeric protein, ristocetin 2 mg/ml, competitor recombinant AS1051 at 20 µg/ml
[9] = biological target: GPIb-mIgG2aFc chimeric protein (N-terminus side region of human glycoprotein Ib, amino acid numbers 1-319, fused to the Fc region of mouse immunoglobulin γ2a) (human (glycoprotein Ib part); mouse (immunoglobulin γ2a Fc part)); assay: Eu-labelled vWF on captured chimeric protein, ristocetin 0.5 mg/ml, competitor recombinant AS1051 at 20 µg/ml
[10] = biological target: GPIb-mIgG2aFc chimeric protein (N-terminus side region of human glycoprotein Ib, amino acid numbers 1-319, fused to the Fc region of mouse immunoglobulin γ2a) (human (glycoprotein Ib part); mouse (immunoglobulin γ2a Fc part)); assay: Eu-labelled vWF on captured chimeric protein, ristocetin 0.25 mg/ml, competitor recombinant AS1051 at 20 µg/ml
[11] = biological target: GPIb-mIgG2aFc chimeric protein (N-terminus side region of human glycoprotein Ib, amino acid numbers 1-319, fused to the Fc region of mouse immunoglobulin γ2a) (human (glycoprotein Ib part); mouse (immunoglobulin γ2a Fc part)); assay: Eu-labelled vWF with botrocetin on captured chimeric protein, in the presence of the competitor AJvW-2 (as the table names it)
[12] = biological target: GPIb-mIgG2aFc chimeric protein (N-terminus side region of human glycoprotein Ib, amino acid numbers 1-319, fused to the Fc region of mouse immunoglobulin γ2a) (human (glycoprotein Ib part); mouse (immunoglobulin γ2a Fc part)); assay: Eu-labelled vWF (500 ng/ml solution) with botrocetin (500 ng/ml) on chimeric protein captured by anti-mouse immunoglobulin antibodies, no inhibitor
[13] = biological target: T1, human von Willebrand factor (human, UniProt P04275 764-2813); assay: ELISA: GPIb-mIgGlFc culture supernatant on vWF immobilised with botrocetin, detected with biotinylated anti-mouse IgG-Fc antibodies
T1 construct: also called vWF; von Willebrand factor labeled with europium (Eu)
Procedure: Immobilization of a mixed solution of von Willebrand factor and botrocetin on a 96-well multititer plate was attained as follows. First, a physiological saline solution of von Willebrand factor (250 μg/ml) and a physiological saline solution of botrocetin (500 μg/ml), which were prepared in a conventional manner, were appropriately diluted, and mixed at the concentration ratios shown in FIG. 2. Then, 50 μl of each mixture was added to each well of a 96-well multititer plate (Maxisorp, produced by Nunc). The plate was left stand overnight at 4° C., and then each well was washed once with a physiological Tris buffer (150 μl, 20 mM Tris-HCl (pH 7.4), 0.15 M sodium chloride; Tris buffered saline, referred to as “TBS” hereinafter). Then, each well was added with 100 μl of TBS containing 10% BSA (bovine serum albumin), left stand for about 3 hours, and washed 3 times with TBS to obtain a von Willebrand factor immobilized plate. […]

[14] = biological target: T1, human von Willebrand factor; assay: Ratio of control count to count with AS1051; Eu-labelled chimeric protein on vWF immobilised with botrocetin
Procedure: The binding of the europium (Eu) labeled chimeric protein and the von Willebrand factor immobilized in the presence of botrocetin prepared as described above was detected as follows. According to the method mentioned in Example 4 <1>, a mixed solution (TBS) containing 2.5 μg/ml of von Willebrand factor and 2.5 μg/ml of botrocetin was added to each well of a 96-well multititer plate (microtitration plate DELFIA, 1244-550, produced by Wallac), immobilized overnight and subjected to washing, blocking and washing to prepare a von Willebrand factor immobilized plate.
Each well of the above plate was added with 25 μl of an assay buffer containing 0.5% BSA (Assay Buffer, Wallac DELFIA 1244-106, produced by Wallac, Composition: 0.5% BSA, 0.05% bovine γ-globulin, 0.01% Tween-40, 20 μM DTPA (diethylenetriamine […] acid), 50 mM Tris-HCl buffered saline (pH 7.8), 0.05% sodium azide) or the recombinant AS1051 (in which Cys81 was replaced with Ala, N. Fukuchiet al., WO 95/08573) at a final concentration of 20 μg/ml as the binding inhibition substance, further added with 25 μl of a solution of europium. […] Then, the amount of europium (Eu) was measured by using a DELFIA Research fluorophotometer (1230 ARCUS Fluorometer, produced by Wallac, measurement time: 1 second). […]

[15] = biological target: T1, human von Willebrand factor; assay: Ratio of control count to count with inhibitor; Eu-labelled chimeric protein on immobilised vWF, botrocetin in liquid phase
Procedure: A TBS solution (50 μl) containing human von Willebrand factor (2.5 μg/ml) was added to each well of a 96-well plate, and the von Willebrand factor was immobilized as a solid phase overnight at 4° C. Each well was washed once with TBS (150 μl) and blocked with TBS containing 5% BSA for about 3 hours. Each well of the plate was washed twice with TBS (150 μl), and then added with 25 μl of an assay buffer (Assay Buffer, Wallac DELFIA 1244-106, produced by Wallac, composition was mentioned in Example 4 <2>) or a recombinant AS1051 (in which Cys81 was replaced with Ala) at a final concentration of 20 μg/ml, further added with the assay buffer (25 μl) containing the europium (Eu)-labeled chimeric protein prepared in Example 4 <2> (100 ng/ml) and botrocetin (500 ng/ml), and left stand at room temperature for 3 hours. Each well of the plate was washed 5 times with TBS ([…]) containing 0.05% Tween-20, then added with 100 μl of a fluorescence enhancement buffer (Enhancement solution, 1244-104, produced by Wallac, composition was mentioned in Example 4 <2>), and shaken for 1 minute. Then, the amount of europium (Eu) was measured by using a 1420 ARVO multi-label counter (produced by Wallac, measurement time: 1 second). The measured values (with no addition of sample or addition of the inhibition sample) and CV value (deviation, %) are shown in Table 2.

## human von Willebrand factor (from UniProt P04275 764-2813) (ligand)
[1]
  Binding amount (count): 2820 counts
[2]
  Binding amount (count): 13300 counts
[3]
  Binding amount (count): 46200 counts
[4]
  Binding amount (count): 3660 counts
[5]
  Binding amount (count): 3010 counts
[6]
  Binding amount in the presence of inhibition substance (count): 3250 counts
[7]
  Binding amount in the presence of inhibition substance (count): 3020 counts
[8]
  Binding amount in the presence of inhibition substance (count): 6880 counts
[9]
  Binding amount in the presence of inhibition substance (count): 1850 counts
[10]
  Binding amount in the presence of inhibition substance (count): 3080 counts
[11]
  Average value of count with addition of AJvW-2 (10 µg/ml): 2340 counts
[12]
  Average value of count in control: 37300 counts

B1: GPIb-mIgGlFc chimeric protein (N-terminal region of human glycoprotein Ibα chain fused to the Fc region of mouse immunoglobulin γ1) (Fc fusion)
chain: HPICEVSKVASHLEVNCDKRNLTALPPDLPKDTTILHLSENLLYTFSLATLMPYTRLTQLNLDRCELTKLQVDGTLPVLGTLDLSHNQLQSLPLLGQTLPALTVLDVSFNRLTSLPLGALRGLGELQELYLKGNELKTLPPGLLTPTPKLEKLSLANNNLTELPAGLLNGLENLDTLLLQENSLYTIPKGFFGSHLLPFAFLHGNPWLCNCEILYFRRWLQDNAENVYVWKQGVDVKAMTSNVASVQCDNSDKFPVYKYPGKGCPTLGDEGDTDLYDYYPEEDTEGDKVRATRTVVKFPTKAHTTPWGLFYSWSTASLDVPRDCGCKPCICTVPEVSSVFIFPPKPKDVLTITLTPKVTCVVVDISKDDPEVQFSWFVDDVEVHTAQTQPREEQFNSTFRSVSELPIMHQDWLNGKEFKCRVNSAAFPAPIEKTISKTKGRPKAPQVYTIPPPKEQMAKDKVSLTCMITDFFPEDITVEWQWNGQPAENYKNTQPIMDTDGSYFVYSKLNVQKSNWEAGNTFTCSVLHEGLHNHHTEKSLSHSPGK
notes: Used as serum-free culture supernatant of transfected CHOdhfr- cells, diluted 8-fold, not purified; also called GPIb-mIgG1Fc; GPIbFcFH
[13]
  binding result: binds

B2: GPIb-mIgG2aFc chimeric protein (N-terminus side region of human glycoprotein Ib, amino acid numbers 1-319, fused to the Fc region of mouse immunoglobulin γ2a) (Fc fusion)
chain: HPICEVSKVASHLEVNCDKRNLTALPPDLPKDTTILHLSENLLYTFSLATLMPYTRLTQLNLDRCELTKLQVDGTLPVLGTLDLSHNQLQSLPLLGQTLPALTVLDVSFNRLTSLPLGALRGLGELQELYLKGNELKTLPPGLLTPTPKLEKLSLANNNLTELPAGLLNGLENLDTLLLQENSLYTIPKGFFGSHLLPFAFLHGNPWLCNCEILYFRRWLQDNAENVYVWKQGVDVKAMTSNVASVQCDNSDKFPVYKYPGKGCPTLGDEGDTDLYDYYPEEDTEGDKVRATRTVVKFPTKAHTTPWGLFYSWSTASLDEPRGPTIKPCPPCKCPAPNLLGGPSVFIFPPKIKDVLMISLSPIVTCVVVDVSEDDPDVQISWFVNNVEVHTAQTQTHREDYNSTLRVVSALPIQHQDWMSGKEFKCKVNNKDLPAPIERTISKPKGSVRAPQVYVLPPPEEEMTKKQVTLTCMVTDFMPEDIYVEWTNNGKTELNYKNTEPVLDSDGSYFMYSKLRVEKKNWVERNSYSCSVVHEGLHNHHTTKSFSRTPGK
notes: Purified on Protein A from CHOK1 culture supernatant; also called europium (Eu) labeled chimeric protein
[14]
  S/N ratio: 28.5
[15]
  S/N ratio: 35
